These are literature values, as cited in publication PMC5758107.

The target in the series is Foc ribosome-nascent chain complex (Escherichia coli) (UniProt P68699). Put plainly: fluorescence correlation spectroscopy.

Where “and” joins values, the source holds several entries; their conditions need not be identical. Identical values can stand only once.

Chain of UniProt P68699 (P68699 whole entry, one chain of several): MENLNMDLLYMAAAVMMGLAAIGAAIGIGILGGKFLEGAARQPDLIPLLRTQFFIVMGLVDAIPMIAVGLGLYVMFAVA

A word on the Kd: it is the equilibrium constant for the complex coming apart. For YidC (from UniProt P25714), the Kd was 210 nM and 85 nM.
